Test results: patent US20240309103A1 (Regeneron, published 2024)

T1: mouse NPR1 extracellular domain expressed with a C-terminal mouse IgG2a (mNPR1-mFc) (mouse)
T1 chain: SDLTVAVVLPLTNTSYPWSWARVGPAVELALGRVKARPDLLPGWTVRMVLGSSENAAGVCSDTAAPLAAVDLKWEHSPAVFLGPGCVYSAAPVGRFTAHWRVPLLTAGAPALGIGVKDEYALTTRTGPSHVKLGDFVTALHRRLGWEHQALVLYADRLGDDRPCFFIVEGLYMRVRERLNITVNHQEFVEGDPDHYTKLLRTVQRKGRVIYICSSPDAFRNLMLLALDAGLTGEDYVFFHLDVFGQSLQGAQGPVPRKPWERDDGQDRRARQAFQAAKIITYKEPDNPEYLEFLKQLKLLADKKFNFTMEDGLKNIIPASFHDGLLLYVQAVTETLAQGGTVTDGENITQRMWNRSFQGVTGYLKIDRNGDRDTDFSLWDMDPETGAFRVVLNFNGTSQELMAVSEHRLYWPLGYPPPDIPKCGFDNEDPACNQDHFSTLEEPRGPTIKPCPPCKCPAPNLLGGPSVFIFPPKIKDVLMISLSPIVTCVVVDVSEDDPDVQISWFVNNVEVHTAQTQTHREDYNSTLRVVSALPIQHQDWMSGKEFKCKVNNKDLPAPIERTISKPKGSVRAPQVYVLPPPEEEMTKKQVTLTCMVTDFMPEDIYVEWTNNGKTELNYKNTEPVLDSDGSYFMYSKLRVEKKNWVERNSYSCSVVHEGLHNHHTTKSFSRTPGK

T2: human NPR1 on HEK293/hNPR1.myc.DDK cells (no hANP added) (human, UniProt P16066 33-1061)
T2 sequence (looked up): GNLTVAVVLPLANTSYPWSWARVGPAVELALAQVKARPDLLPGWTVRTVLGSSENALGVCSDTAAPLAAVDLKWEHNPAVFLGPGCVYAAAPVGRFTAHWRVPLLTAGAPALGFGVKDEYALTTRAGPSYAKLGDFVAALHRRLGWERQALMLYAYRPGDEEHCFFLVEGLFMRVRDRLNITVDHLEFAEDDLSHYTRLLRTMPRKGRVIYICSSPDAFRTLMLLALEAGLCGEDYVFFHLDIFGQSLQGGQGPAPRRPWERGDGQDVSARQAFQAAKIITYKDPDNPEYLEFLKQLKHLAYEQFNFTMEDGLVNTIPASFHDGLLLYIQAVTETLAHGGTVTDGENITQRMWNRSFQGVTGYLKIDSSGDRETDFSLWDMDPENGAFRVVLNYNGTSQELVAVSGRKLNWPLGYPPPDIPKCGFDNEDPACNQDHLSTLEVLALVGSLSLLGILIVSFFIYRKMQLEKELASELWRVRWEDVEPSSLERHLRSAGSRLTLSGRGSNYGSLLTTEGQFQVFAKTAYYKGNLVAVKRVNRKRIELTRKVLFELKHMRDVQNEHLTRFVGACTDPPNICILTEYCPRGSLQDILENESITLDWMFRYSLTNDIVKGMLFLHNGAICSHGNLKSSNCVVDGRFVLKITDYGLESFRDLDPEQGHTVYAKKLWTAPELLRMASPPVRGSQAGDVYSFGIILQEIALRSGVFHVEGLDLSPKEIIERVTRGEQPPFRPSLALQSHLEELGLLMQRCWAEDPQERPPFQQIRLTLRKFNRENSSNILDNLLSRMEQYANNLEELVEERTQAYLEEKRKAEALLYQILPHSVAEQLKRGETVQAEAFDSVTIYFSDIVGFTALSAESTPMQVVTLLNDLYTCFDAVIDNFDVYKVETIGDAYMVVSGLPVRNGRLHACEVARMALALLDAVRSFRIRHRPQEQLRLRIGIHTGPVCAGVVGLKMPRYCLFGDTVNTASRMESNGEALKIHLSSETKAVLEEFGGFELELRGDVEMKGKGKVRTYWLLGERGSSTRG

T3: monkey NPR1 extracellular domain expressed with a C-terminal myc-myc-hexahistidine (mfNPR1-MMH) (monkey, UniProt P16066 33-473 (human entry))
T3 construct: also called monomeric monkey NPR1
T3 chain: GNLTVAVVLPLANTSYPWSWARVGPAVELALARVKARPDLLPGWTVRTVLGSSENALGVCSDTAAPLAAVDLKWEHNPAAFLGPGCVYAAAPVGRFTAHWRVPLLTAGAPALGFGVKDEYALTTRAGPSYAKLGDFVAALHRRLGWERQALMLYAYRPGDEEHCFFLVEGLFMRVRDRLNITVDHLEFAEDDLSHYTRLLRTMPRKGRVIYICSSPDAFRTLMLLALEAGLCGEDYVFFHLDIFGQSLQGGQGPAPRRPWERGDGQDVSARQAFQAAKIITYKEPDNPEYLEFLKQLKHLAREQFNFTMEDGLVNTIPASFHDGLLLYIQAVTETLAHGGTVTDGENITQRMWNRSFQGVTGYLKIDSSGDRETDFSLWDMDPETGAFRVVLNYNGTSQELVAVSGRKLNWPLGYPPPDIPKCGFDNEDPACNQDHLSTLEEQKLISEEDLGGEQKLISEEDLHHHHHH


Assays:
[1] = target: T1, mouse NPR1 extracellular domain …; test: SPR, Tables 21 to 26
Method in brief: (§1)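 Equilibrium dissociation constants come from surface plasmon resonance, with the NPR1 reagent flowed over captured antibody. The capture layer was anti-human Fc (monoclonal or goat polyclonal), amine-coupled onto a CM5 chip. Buffer was HEPES-buffered saline with EDTA and 0.05% Tween-20, pH 7.4.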

[2] = target: T2, human NPR1 on HEK293/hNPR1.myc.DDK …; test: cell-based or functional assay
[3] = target: T4, human NPR1 extracellular domain expressed with a C-terminal myc-myc-hexahistidine (hNPR1-MMH) (human, UniProt P16066 33-473); test: SPR, mAb captured, 37 C
T4 construct: also called hNPR.mmh; monomeric human NPR1
Method in brief: as §1

[4] = target: T3, monkey NPR1 extracellular domain …; test: SPR, mAb captured, 37 C
Method in brief: as §1

Row | Binder | binding result [1] | EC50 of Ca2+ flux activation, Expt I [2] | EC50 of Ca2+ flux activation, Expt II [2] | 100 nM Ag Bound (RU) [3] | Kd [3] | koff [3] | kon [3] | t½ [3] | 100 nM Ag Bound (RU) [4] | Kd [4] | koff [4] | kon [4] | t½ [4]
1 | mAb22035 (antibody, V domains shown) VH: EVQLVESGGGLVQPGRSLRLSCAASGFTFDDYAMHWVRQAPGKGLEWVSGISWNSGTIGYADSVKGRFTMSRDNAKNSLYLQMNSLRPEDTALYYCAKDMGVSLALWGAFDIWGQGTMVTVSS VL: DIQMTQSPSSLSASVGDKVTITCRASQNIRTYLNWYQQKPGKAPKVLISTASSLQSGVPSRFSGSGSGTDFTLTISSLQPEDFAVFYCQQSFGIPRTFGQGTKVEIK | no binding | 83.7 to 384 nM | > 200 nM | 284 RU | 1.3 nM | 0.000312 s⁻¹ | 240000 M⁻¹ s⁻¹ | 37.1 min | 319 RU | 0.702 nM | 0.000374 s⁻¹ | 532000 M⁻¹ s⁻¹ | 30.9 min
2 | mAb22033 (antibody, V domains shown) VH: QVQLVQSGAEVKKPGASVTVSCKASGYTFTDYYMHWVRQAPGQGLEWMGWIKPNSGGTNSAQRFQGRITMTWDTSISTAYMELSRLRSDDTAVYYCSRGGPVMNYYYYYGMDVWGQGTTVTVSS VL: NIQMTQSPSSLSASVGDRVTITCRASQSIDSYLNWYQQKPGKAPKLLIYVASSLQSGVPSRFSGSGSGKDFTLTISSLQPEDFATYYCQQSYSIPTFGQGTRLEIK | no binding | 83.7 to 384 nM | 41.6 nM | 52 RU | 136 nM | 0.000819 s⁻¹ | 6030 M⁻¹ s⁻¹ | 14.1 min | 131 RU | 27.8 nM | 0.000697 s⁻¹ | 25100 M⁻¹ s⁻¹ | 16.6 min
